PMC4141198, “The conserved ubiquitin-like protein Hub1 plays a critical role in splicing in human cells” (Journal of Molecular Cell Biology, 2014)

Target: T1, 6xHis-tagged human Hub1 (human, UniProt Q9BZL1 1-73)
T1 construct: human Hub1 (UBL5) expressed from pET28a; also called UBL5; purified Hub1; source: E. coli BL21-CodonPlus (DE3)-RIL, purified (Ni-NTA, Superdex 75)
T1 sequence: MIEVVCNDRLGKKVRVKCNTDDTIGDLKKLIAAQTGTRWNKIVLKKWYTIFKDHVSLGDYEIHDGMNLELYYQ
Experiment: crystal structure; Hub1 mixed with the HIND peptide at a molar ratio of 1:3, complex separated on Superdex 75; crystals at 20°C in 0.1 M Tris/HCl pH 9.0, 0.15 M sodium acetate, 20% PEG 4000; 2.0 Å
Conditions: both partners purified

B1: hSnu66 HIND peptide (residues 117-135) (peptide)
peptide: SLSIEETNKLRAKLGLKPL
notes: residues 117-135 of human Snu66 (SART1), the single HIND element; source: synthetic peptide
B1: binds.
